According to article PMC12363165 (2025):

B1: Vpu with LgBiT fused to its C-terminus (pBiT1.1-C-vpu) [HIV-1] / RBM10 fused to SmBiT (pBiT2.1-C-rbm10) [human] (parent complex)
chain 1: MQPIQIAIAALVVAIIIAIVVWSIVIIEYRKILRQRKIDRLIDRLIERAEDSGNESEGEISALVEMGVEMGHHAPWDIDDL
chain 2: MEYERRGGRGDRTGRYGATDRSQDDGGENRSRDHDYRDMDYRSYPREYGSQEGKHDYDDSSEEQSAEDSYEASPGSETQRRRRRRHRHSPTGPPGFPRDGDYRDQDYRTEQGEEEEEEEDEEEEEKASNIVMLRMLPQAATEDDIRGQLQSHGVQAREVRLMRNKSSGQSRGFAFVEFSHLQDATRWMEANQHSLNILGQKVSMHYSDPKPKINEDWLCNKCGVQNFKRREKCFKCGVPKSEAEQKLPLGTRLDQQTLPLGGRELSQGLLPLPQPYQAQGVLASQALSQGSEPSSENANDTIILRNLNPHSTMDSILGALAPYAVLSSSNVRVIKDKQTQLNRGFAFIQLSTIVEAAQLLQILQALHPPLTIDGKTINVEFAKGSKRDMASNEGSRISAASVASTAIAAAQWAISQASQGGEGTWATSEEPPVDYSYYQQDEGYGNSQGTESSLYAHGYLKGTKGPGITGTKGDPTGAGPEASLEPGADSVSMQAFSRAQPGAAPGIYQQSAEASSSQGTAANSQSYTIMSPAVLKSELQSPTHPSSALPPATSPTAQESYSQYPVPDVSTYQYDETSGYYYDPQTGLYYDPNSQYYYNAQSQQYLYWDGERRTYVPALEQSADGHKETGAPSKEGKEKKEKHKTKTAQQIAKDMERWARSLNKQKENFKNSFQPISSLRDDERRESATADAGYAILEKKGALAERQHTSMDLPKLASDDRPSPPRGLVAAYSGESDSEEEQERGGPEREEKLTDWQKLACLLCRRQFPSKEALIRHQQLSGLHKQNLEIHRRAHLSENELEALEKNDMEQMKYRDRAAERREKYGIPEPPEPKRRKYGGISTASVDFEQPTRDGLGSDNIGSRMLQAMGWKEGSGLGRKKQGIVTPIEAQTRVRGSGLGARGSSYGVTSTESYKETLHKTMVTRFNEAQ

Variants of: B1
Assay: NanoBiT luciferase complementation reporter assay; HEK293T cells, co-transfection, read after 2 days; parent: 1; read off a plot
For chain 1 R34A, the ratio to parent was roughly 0.63.
For chain 1 I26A, the ratio to parent was roughly 0.56.
chain 1 V25A gave a ratio to parent of roughly 0.41.
Work on chain 1 H73A yielded a ratio to parent of roughly 0.98.
chain 1 D77A was tested, and the ratio to parent was roughly 0.6.
